Measured values from patent US20060084789A1, “Immunotherapeutic and immunoprphylactic reagents” (priority 2002, published 2006).

Experiments:
RGP-specific TCL = assay: TCL proliferation assay (3H-thymidine incorporation, stimulation index); type: cell-based, human; details: for TCL that responded, response to allergen or peptide: allergen responsiveness considered as response to allergen or peptide; for TCL tested that responded to purified allergen: ten of fourteen TCL (Lol p 1), nine of fifteen TCL (Lol p 5), positive if SI ≥2.5; for Proliferative response, stimulation index: peptides 10 μg/ml
Experimental: Generation of Short-Term RGP-Specific TCL
PBMC were cultured in 24-well plates (Costar, Mass., USA) at 2.5×10^6 cells/well with RGP extract at a concentration of 25 or 50 μg/ml in RPMI 1640 medium (Gibco BRL, NY, USA) supplemented with 2 mM GlutaMAX I (Gibco BRL), 0.05 mg/ml gentamicin (David Bull Laboratories, Mulgrave, Victoria, Australia) and 5% heat-inactivated hunan AB^+ serum (Sigma, Mo., USA) for 7 days at 37° C. in a 5% CO2 humidified incubator. At day 7, cells were washed once and restimulated in 24-well plates at 5×10^5 cells/well width 25 or 50 μg/ml of RGP extract in the presence of 5×10^5 cells/well irradiated (3000 rads) autologous PBMC as a source of antigen presenting cells (APC). At day 2 following restimulation, 10 U/ml of Lymphocult T-LF (LC; Biotest, Germany) was added as a source of IL-2 and at day 4, 1 ml of culture medium was removed and replaced with fresh medium and 10 U/ml of LC. […] In all experiments T cells were rested for 6 to 7 days after the last addition of antigen and APC before testing.
T cells (5×10^4/well) were cultured in 96-well U bottom plates with either RGP extract at concentrations ranging from 25 to 200 μg/ml, purified Lol p 1 (0.12 to 2 μg/ml) or Lol p 5 (0.1 to 10 μg/ml), or Lol p 1 or Lol p 5 peptides (10 μg/ml), or medium alone (to determine background levels of proliferation), in the presence of washed autologous irradiated (3000 rads) PBMC (5×10^4/well). […] Cultures were incubated for 3 days, pulsed for the last 16 hours with ^3H-thymidine (1 μCi/well) and harvested onto glass fibre filters. ^3H-thymidine incorporation was measured by liquid scintillation spectroscopy and the mean counts per minute (cpm) for triplicate cultures was determined. Responses were considered positive if the stimulation index (SI, cpm of antigen-stimulated T cells divided by cpm of unstimulated T cells) was ≧2.5. Where several concentrations of allergen were tested (i.e., RGP, Lol p 1 and Lol p 5), values corresponding to the highest proliferation are shown.

[1] = tested on: oligoclonal house dust mite (HDM)- or low ammoniated latex (LAL)-reactive CD44^+ T cells; assay: Mitogenicity check with irrelevant-antigen T cells and irradiated autologous PBMC; type: cell-based; details: culture with HDM- or LAL-reactive T cells and irradiated autologous PBMC; data not shown
From the text: Mitogenicity of RGP, Lol p 1, Lol p 5 and peptides was excluded by culturing with oligoclonal house dust mite (HDM)- or low ammoniated latex (LAL)-reactive CD44^+ T cells in the presence of irradiated autologous PBMC, and toxicity was excluded by co-culture of antigens with HDM- or LAL-reactive T cells in the presence of IL-2 (data not shown).

Row | Molecule | TCL that responded, response to allergen or peptide (RGP-specific TCL) | TCL tested that responded to purified allergen (RGP-specific TCL) | Mitogenicity [1] | Proliferative response, stimulation index (RGP-specific TCL; Subject 1 TCL, Lol p 1 series (Table 3), RGP and Lol p 1 maximal response) | Proliferative response, stimulation index (RGP-specific TCL; Subject 2 TCL, Lol p 1 series (Table 3), RGP and Lol p 1 maximal response) | Proliferative response, stimulation index (RGP-specific TCL; Subject 4 TCL, Lol p 1 series (Table 3), RGP and Lol p 1 maximal response) | Proliferative response, stimulation index (RGP-specific TCL; Subject 5 TCL, Lol p 1 series (Table 3), RGP and Lol p 1 maximal response) | Proliferative response, stimulation index (RGP-specific TCL; Subject 6 TCL, Lol p 1 series (Table 3), RGP and Lol p 1 maximal response) | Proliferative response, stimulation index (RGP-specific TCL; Subject 8 TCL, Lol p 5 series (Table 4), RGP and Lol p 5 maximal response) | Proliferative response, stimulation index (RGP-specific TCL; Subject 11 TCL, Lol p 5 series (Table 4), RGP and Lol p 5 maximal response) | Proliferative response, stimulation index (RGP-specific TCL; Subject 15 TCL, Lol p 1 series (Table 3), RGP and Lol p 1 maximal response) | Proliferative response, stimulation index (RGP-specific TCL; Subject 19 TCL, Lol p 1 series (Table 3), RGP and Lol p 1 maximal response) | Proliferative response, stimulation index (RGP-specific TCL; Subject 27 TCL, Lol p 5 series (Table 4), RGP and Lol p 5 maximal response, † affinity purified Lol p 5) | Proliferative response, stimulation index (RGP-specific TCL; Subject 38 TCL, Lol p 5 series (Table 4), RGP and Lol p 5 maximal response, * SDS-PAGE purified Lol p 5)
1 | Lol p 5: Rye grass pollen allergen purified from RGP extract by SDS-PAGE or affinity chromatography (mAb FMC A7) (protein) ADAGYTPAAAATPATPAATPAAAGGKATTDEQKLLEDVNAGFKAAVAAAANAPPADKFKIFEAAFSESSKGLLATSAAKAPGLIPKLDTAYDVAYKAAEGATPEAKYDAFVTALTEALRVIAGALEVHAVKPATEEVPAAKIPTGELQIVDKIDAAFKIAATAANAAPTNDKFTVFESAFNKALNECTGGAYETYKFIPSLEAAVKQAYAATVAAAPEVKYAVFEAALTKAITAMTQAQKAGKPAAAAATGAATVATGAATAAAGAATAAAGGYKA | 91% | 60% | excluded |  |  |  |  |  |  |  |  |  |  | 
2 | Lol p 1: Rye grass pollen allergen purified from crude RGP extracts by SDS-PAGE (protein, Lolium perenne, Rye grass pollen allergen purified from crude RGP extracts by SDS-PAGE) IAKVPPGPNITAEYGDKWLDAKSTWYGKPTGAGPKDNCGACGYKDVDKAPFNGMTGCGNTPIFKDGRGCGSCFEIKCTKPESCSGEAVTVTITDDNEEPIAPYHFDLSGHAFGSMAKKGEEQKLRASAGELELQFRRVKCKYPDGTKPTFHVEKASNPNYLAILVKYVDGDGDVVAVDIKEKGKDKWIELKESWGAVWRIDTPDKLTGPFTVRYTTEGGTKSEVEDVIPEGWKADTSYSAK | 79% | 71% | excluded | 5.9 | 3.0 | 2.9 | 2.5 | 4.0 | 4.3 | 3.4 | 0.3 | 10.5 | 3.8† | 3.2*
